Experimental data published in article PMC9772378.

Tests used:
[1] = target: Singapore16 N2 NA (head domain, residues 82-469) with VASP tetramerization domain (influenza A virus A/Singapore/INFIMH-16-0019/2016 (H3N2)); test: negative-stain electron microscopy
[2] = target: Singapore16 N2 NA (head domain, residues 82-469) without VASP tetramerization domain (influenza A virus A/Singapore/INFIMH-16-0019/2016 (H3N2)); test: negative-stain electron microscopy

Substance	stoichiometry N [1]	stoichiometry N [2]
Singapore16 N2 NA (head domain, residues 82-469) with VASP tetramerization domain (domain or fragment)	4	–
Singapore16 N2 NA (head domain, residues 82-469) without VASP tetramerization domain (domain or fragment)	–	4
